The target of test [1] is yeast-displayed wild-type CD19 (extracellular domain) (human) (UniProt P15391). Briefly: flow cytometry, yeast display, Aga2p-CD19, 22 °C pre-treat; mAb binding against CD19 per yeast.
The target is the same in test [2]. Briefly: flow cytometry, yeast display, CD19-Aga2p, 22 °C pre-treat; mAb binding against CD19 per yeast. On the technique in general: Flow cytometry measures light scatter and fluorescence of single cells or particles in a stream.
The target of test [3] is CD19-scFvHER2 (FIG. 15A). Briefly: flow cytometry, yeast display, right panel; FMC63 + GaM-A647 (FL4-A) against biotin-HER2 + strep-A488 (FL1-A); Q8 30.1 also printed.
The target of test [4] is CD19-scFvHER2 (FIG. 15A). The test can be described thus: flow cytometry, yeast display, right panel; FMC63 + GaM-A647 (FL4-A) against biotin-HER2 + strep-A488 (FL1-A).
The target of test [5] is CD19-FnEGFR (FIG. 15A). Briefly: flow cytometry, yeast display, left panel; FMC63 + GaM-A647 (FL4-A) against biotin-EGFR + strep-A488 (FL1-A); Q8 64.9 also printed.
Test [6] has as its target CD19-FnEGFR (FIG. 15A). Briefly: flow cytometry, yeast display, left panel; FMC63 + GaM-A647 (FL4-A) against biotin-EGFR + strep-A488 (FL1-A).

yeast-displayed wild-type CD19 (extracellular domain) (human), sequence (P15391 20-291): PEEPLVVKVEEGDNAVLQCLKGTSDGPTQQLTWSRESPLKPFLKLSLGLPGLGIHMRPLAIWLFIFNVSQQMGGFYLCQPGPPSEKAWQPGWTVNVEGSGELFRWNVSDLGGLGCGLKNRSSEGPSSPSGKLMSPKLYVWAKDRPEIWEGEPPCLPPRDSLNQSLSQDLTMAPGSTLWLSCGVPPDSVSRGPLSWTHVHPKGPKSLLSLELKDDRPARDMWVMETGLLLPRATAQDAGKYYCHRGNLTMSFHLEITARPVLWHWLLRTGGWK

On to 4G7 (antibody), for which the percent of yeast in gate R7 (CD19-displaying, no mAb signal; taken as the lower dashed gate) in test [1] was 37.2%. Besides, the percent of yeast in gate R8 (CD19-displaying, no mAb signal; taken as the lower dashed gate) in test [2] was 51.6%.

Regarding FMC63 (antibody), the Q5, percent of events positive for FMC63 and negative for biotin-target in test [3] came out at 31.8; in test [5], 35.1. Also, the values for the Q6, percent of events positive for FMC63 and biotin-target in test [4] and in test [6] were 35.1 and 0.034, respectively.

For the origin of these results see patent publication US20210079060A1.
